4 substances from US20100323957A1, “NOVEL ASSAY FOR INHIBITORS OF EGFR” (THE REGENTS OF THE UNIVERSITY OF CALIFORNIA THE OFFICE OF …, priority 2007, published 2010) can be followed below.

In assay [1] the target is EGFR kinase domain L834R mutant (human) (UniProt P00533). Nature of the assay: cell-based or functional assay.
In assay [2] the target is wild-type EGFR kinase domain (residues 672-998 of human EGFR) with N-terminal 6-His tag, linker and TEV site (human) (UniProt P00533). Nature of the assay: cell-based or functional assay.
Assay [3] concerns the target EGFR kinase domain I682Q mutant with N-terminal His tag and linker (human) (UniProt P00533). Nature of the assay: anisotropy.

Chain of 30-residue fluorescein-labelled MIG6 peptide (residues 334-363) (Q9UJM3 334-363): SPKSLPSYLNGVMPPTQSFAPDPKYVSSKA

In assay [1], “MIG6(segments 1-2) peptide (residues 336-412) (from UniProt Q9UJM3 336-412)” gave an IC50, inhibition of kinase activity in solution of 0.2 µM.

In the case of “40-residue MIG6 peptide (residues 325-364) (from UniProt Q9UJM3 325-364)”, the IC50, inhibition of activated EGFR kinase in assay [2] came to 10 µM.

“30-residue fluorescein-labelled MIG6 peptide (residues 334-363) (from UniProt Q9UJM3 334-363)” yielded a Kd in assay [3] of 18.3 µM.

In assay [1], “MIG6(segments 1-2) peptide (residues 336-412) bearing Y358A (from UniProt Q9UJM3 336-412)” gave an IC50, inhibition of kinase activity in solution of 5 µM.
